Results from the Human Domainome abundance scans (Beltran et al. 2025).
± gives the uncertainty stated by the source.

B1: Triacylglycerol hydrolase DDHD2, residues 389 to 447; numbered along this chain, O94830 (parent)
chain: TLEEDLKKLQLSEFFDIFEKEKVDKEALALCTDRDLQEIGIPLGPRKKILNYFSTRKNS

Variants of: B1
Assay: abundance fitness (aPCA) (normalised: wild type 0, dead -1); higher = more abundant; growth selection in yeast, the domain comes from the species named
Settings: Homo sapiens

Row | Variant | abundance fitness
1 | TLEEDLKKLQLSEFFDIFEKNKVDKEALALCTDRDLQEIGIPLGPRKKILNYFSTRKNS [E21N] | 0.428 ± 0.13
2 | TLEEDLKKLQLSEFFDIFEKEKVDKEALALCTDRDLQEIGIPLGPRKKILNYFQTRKNS [S54Q] | 0.055 ± 0.098
3 | TLEEDLKKLQLSEFFDIFEKEKVDKEALALCTDRDLQEIGIPLGPRKKILNYFNTRKNS [S54N] | -0.152 ± 0.1
4 | TLEEDLKKLQLSEFFDIFEKEKVDKEALALCTDRDLQEIGIPLGPRKKILNYFGTRKNS [S54G] | -0.113 ± 0.063
5 | TLEEDLKKLQLSEFFDIFEKEKVDKEALALCTDRDLQKIGIPLGPRKKILNYFSTRKNS [E38K] | 0.299 ± 0.094
6 | TLEEDLKKLQLSEFFDIFEKEKVDKEALALCTDRDLQMIGIPLGPRKKILNYFSTRKNS [E38M] | 0.033 ± 0.097
7 | TLEEDLKKLQLSEFFDIFEKEKVDKEALALCTDRDLQCIGIPLGPRKKILNYFSTRKNS [E38C] | -0.129 ± 0.08
8 | TLEEDLKKLQLSEFFDIFEKEKVDKEALALCTDRDLQEIGIPLGPRIKILNYFSTRKNS [K47I] | 0.193 ± 0.11
9 | TLEEDLKKLQLSEFFDIFEKEKVDKEALALCTDRDLQEIGIPLGPRNKILNYFSTRKNS [K47N] | 0.254 ± 0.1
10 | TLEEDLKKLQLSEFFDIFEKEKVDKEALALCTDRDLQEIGIPLGPRWKILNYFSTRKNS [K47W] | -0.368 ± 0.098
11 | TLEEDLKKLQLSEFFDIFEKEKVDKEALALCTDRDLQEIGIPLGPRHKILNYFSTRKNS [K47H] | -0.376 ± 0.11
12 | TLEEDLKKLQLSEFFDIFEKEKVDKEALALFTDRDLQEIGIPLGPRKKILNYFSTRKNS [C31F] | 0.605 ± 0.072
13 | TLEEDLKKLQLSEFFDIFEKEKVDKEALALCTDRDLQEIGIPLGPRKKILNYISTRKNS [F53I] | -0.085 ± 0.15
14 | TLEEDLKKLQLSEFFDIFEKEKVDKEYLALCTDRDLQEIGIPLGPRKKILNYFSTRKNS [A27Y] | 0.6 ± 0.12
15 | TLEEDLKKLQLSEFFDIFEKEKVDKEALALCTDSDLQEIGIPLGPRKKILNYFSTRKNS [R34S] | 0.074 ± 0.061
16 | TLEEDLKKLQLSEFFDIFEKEKVDKEALALCTDFDLQEIGIPLGPRKKILNYFSTRKNS [R34F] | 0.174 ± 0.089
17 | TLEEDLKKLQLSEFFDIFEKEKVDKEARALCTDRDLQEIGIPLGPRKKILNYFSTRKNS [L28R] | -0.498 ± 0.074
18 | TLEEDLKKLQLSEFFDIFEKEKVDKEALALCTDRDLQEIGIPLGPRKKILNGFSTRKNS [Y52G] | -0.34 ± 0.067
19 | TLEEDLKKLQLSENFDIFEKEKVDKEALALCTDRDLQEIGIPLGPRKKILNYFSTRKNS [F14N] | -0.193 ± 0.19
20 | TLEEDLKKLQLSEFFDIFEKEKVDKEALALCTDRDLQEIGIPLGPRKKILGYFSTRKNS [N51G] | 0.061 ± 0.07
21 | TLEEDLKKLQLSEFFDIQEKEKVDKEALALCTDRDLQEIGIPLGPRKKILNYFSTRKNS [F18Q] | -0.31 ± 0.15
22 | TLEEDLKKLQLSEFFDIFEKEKVDKEALALCTDRDLQEAGIPLGPRKKILNYFSTRKNS [I39A] | -0.204 ± 0.074
23 | TLEEDLKKLQLSEFFDIFEKEKVDKEALALCTDRDLQENGIPLGPRKKILNYFSTRKNS [I39N] | -0.249 ± 0.18

Row | Variant | abundance fitness
24 | TLEEDLVKLQLSEFFDIFEKEKVDKEALALCTDRDLQEIGIPLGPRKKILNYFSTRKNS [K7V] | -0.43 ± 0.087
25 | TLEEDLKKLQLSEFFDIFEKEKVDKEALALCTDRDLQEIGIPWGPRKKILNYFSTRKNS [L43W] | 0.16 ± 0.082
26 | TLEEDLKKLQLSEFFDIFEKEKVDKTALALCTDRDLQEIGIPLGPRKKILNYFSTRKNS [E26T] | -0.173 ± 0.11
27 | TLEEDLKKLQLSEFFDIFEKEKVDKWALALCTDRDLQEIGIPLGPRKKILNYFSTRKNS [E26W] | -0.086 ± 0.084
28 | TLEEDLKKLQLSEFFDIFEKEKVDKHALALCTDRDLQEIGIPLGPRKKILNYFSTRKNS [E26H] | 0.153 ± 0.13
29 | TLEEDRKKLQLSEFFDIFEKEKVDKEALALCTDRDLQEIGIPLGPRKKILNYFSTRKNS [L6R] | -0.833 ± 0.11
30 | TLEEDDKKLQLSEFFDIFEKEKVDKEALALCTDRDLQEIGIPLGPRKKILNYFSTRKNS [L6D] | 0.082 ± 0.21
31 | TLEEDLKKLQLCEFFDIFEKEKVDKEALALCTDRDLQEIGIPLGPRKKILNYFSTRKNS [S12C] | -0.22 ± 0.093
32 | TLEEDLKKLQLGEFFDIFEKEKVDKEALALCTDRDLQEIGIPLGPRKKILNYFSTRKNS [S12G] | -0.099 ± 0.058
33 | TLEEDLKKLQLYEFFDIFEKEKVDKEALALCTDRDLQEIGIPLGPRKKILNYFSTRKNS [S12Y] | -0.13 ± 0.088
34 | TLEEDLKKLQLSEFFDIFEKEKVWKEALALCTDRDLQEIGIPLGPRKKILNYFSTRKNS [D24W] | -0.888 ± 0.2
35 | TLEEDLKKLQLSEFMDIFEKEKVDKEALALCTDRDLQEIGIPLGPRKKILNYFSTRKNS [F15M] | -0.175 ± 0.098
36 | TLEEDLKKLQLSEFQDIFEKEKVDKEALALCTDRDLQEIGIPLGPRKKILNYFSTRKNS [F15Q] | -0.103 ± 0.086
37 | TLEEDLKKLQLSEFADIFEKEKVDKEALALCTDRDLQEIGIPLGPRKKILNYFSTRKNS [F15A] | -0.005 ± 0.062
38 | TLEEDLKKLQLSEFGDIFEKEKVDKEALALCTDRDLQEIGIPLGPRKKILNYFSTRKNS [F15G] | 0.007 ± 0.071
39 | TLEEDLKKLQLSEFFDIFEKEKVDKEALALCTDRDLQEIRIPLGPRKKILNYFSTRKNS [G40R] | -0.411 ± 0.082
40 | TLEEDLKKLQLSEFFDIFEKEKVDKEALALCTDRDLQEIKIPLGPRKKILNYFSTRKNS [G40K] | -0.651 ± 0.16
41 | TLEENLKKLQLSEFFDIFEKEKVDKEALALCTDRDLQEIGIPLGPRKKILNYFSTRKNS [D5N] | -0.319 ± 0.1
42 | TLEESLKKLQLSEFFDIFEKEKVDKEALALCTDRDLQEIGIPLGPRKKILNYFSTRKNS [D5S] | -0.016 ± 0.062
43 | TLEEHLKKLQLSEFFDIFEKEKVDKEALALCTDRDLQEIGIPLGPRKKILNYFSTRKNS [D5H] | 0.004 ± 0.11
44 | TLWEDLKKLQLSEFFDIFEKEKVDKEALALCTDRDLQEIGIPLGPRKKILNYFSTRKNS [E3W] | -0.16 ± 0.059
45 | TLVEDLKKLQLSEFFDIFEKEKVDKEALALCTDRDLQEIGIPLGPRKKILNYFSTRKNS [E3V] | -0.454 ± 0.064
